From patent US20220041738A1 (SAITAMA MEDICAL UNIVERSITY, published 2022)
Substitutions are numbered along the chain they refer to.

Columns and labels:
Assay in all cases: immunofluorescence (legend of FIG. 4)
[1] = molecular target: T1, human ALK2-L196P on cells (human, UniProt Q04771 21-509)
T1 sequence: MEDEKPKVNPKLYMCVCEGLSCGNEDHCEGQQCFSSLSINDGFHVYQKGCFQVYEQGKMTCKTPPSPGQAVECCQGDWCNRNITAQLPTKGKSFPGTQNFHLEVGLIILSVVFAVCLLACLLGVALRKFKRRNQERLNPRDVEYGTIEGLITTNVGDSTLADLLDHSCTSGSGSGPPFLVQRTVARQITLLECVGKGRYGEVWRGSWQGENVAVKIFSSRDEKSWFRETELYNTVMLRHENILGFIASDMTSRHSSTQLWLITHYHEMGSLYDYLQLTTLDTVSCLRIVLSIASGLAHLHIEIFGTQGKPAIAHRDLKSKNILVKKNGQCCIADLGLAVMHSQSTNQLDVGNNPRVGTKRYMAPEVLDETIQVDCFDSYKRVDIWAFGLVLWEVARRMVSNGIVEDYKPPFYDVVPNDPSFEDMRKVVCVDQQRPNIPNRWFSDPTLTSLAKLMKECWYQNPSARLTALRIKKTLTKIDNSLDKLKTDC
Experimental: (§1) Mouse C2C12 cells were seeded into a 96-well plate (Greiner Bio-One) at 0.5×10³ cells/well, and cultured in 15% FBS-containing DMEM medium overnight under the conditions of 5% CO₂ at 37° C. On the following day, the C2C12 cells were transfected with each of a wild-type human ALK2 cDNA integrated into pcDEF3; pcDEF3/human ALK2-L196P, pcDEF3/human ALK2-P197_F198delinsL, pcDEF3/human ALK2-R202I, pcDEF3/human ALK2-R206H, pcDEF3/human ALK2-Q207E, pcDEF3/human ALK2-R258S, pcDEF3/human ALK2-G325A, pcDEF3/human ALK2-G328E, pcDEF3/human ALK2-G328R, pcDEF3/human ALK2-G328W, pcDEF3/human ALK2-G356D, and pcDEF3/human ALK2-R375P, which are variants identified in FOP; and pcDEF3 as a control, using Lipofectamine 2000 (Invitrogen), and further cultured overnight.
(§2) The C2C12 cells were fixed with 10% neutral formalin (Nacalai Tesque, Japan) for 20 minutes at room temperature, and then blocked with 10% goat normal serum for 30 minutes. After the blocking agent was removed, purified IgG diluted to 10 μg/mL with the blocking agent was added, and the cells were left for 1 hour at room temperature. After the cells were washed with PBS three times, Goat Alexa 594-conjugated anti-rat IgG (Invitrogen) diluted to 1:1000 with the blocking agent was added, and the cells were left for 1 hour at room temperature. After the cells were washed with PBS three times, the cells were fixed with 10% neutral formalin for 15 minutes at room temperature, and nuclear-stained with DAPI (LifeTechnologies). Fluorescent signals were analyzed with a fluorescence microscope BZ-9000 (Keyence).

[2] = molecular target: T2, human ALK2-P197_F198delinsL on cells (human, UniProt Q04771 21-509)
T2 construct: also called delP197_F198insL
T2 sequence: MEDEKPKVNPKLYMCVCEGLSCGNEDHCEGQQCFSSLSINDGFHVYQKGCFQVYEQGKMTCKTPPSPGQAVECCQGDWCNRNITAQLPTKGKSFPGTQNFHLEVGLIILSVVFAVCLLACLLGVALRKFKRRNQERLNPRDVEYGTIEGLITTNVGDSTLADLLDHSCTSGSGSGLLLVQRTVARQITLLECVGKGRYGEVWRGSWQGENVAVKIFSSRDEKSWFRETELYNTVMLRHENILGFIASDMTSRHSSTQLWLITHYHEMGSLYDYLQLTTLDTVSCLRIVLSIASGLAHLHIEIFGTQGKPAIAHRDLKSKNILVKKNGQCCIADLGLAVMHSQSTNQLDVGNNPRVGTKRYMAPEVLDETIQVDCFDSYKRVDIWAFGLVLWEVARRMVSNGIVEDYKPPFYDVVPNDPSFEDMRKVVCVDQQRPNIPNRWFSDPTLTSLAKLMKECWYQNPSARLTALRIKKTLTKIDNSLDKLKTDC
Experimental: as §1, §2

[3] = molecular target: T3, wild-type human ALK2 on cells (cDNA in pcDEF3) (human, UniProt Q04771 21-509)
T3 construct: also called wild-type ALK2; ALK2 (WT)
T3 sequence: T1 sequence with P176L
Experimental: as §1, §2

[4] = molecular target: T4, human ALK2-G328W on cells (human, UniProt Q04771 21-509)
T4 sequence: T1 sequence with P176L, G308W
Experimental: as §1, §2

Measured: binding result

B1: rat anti-ALK2 monoclonal antibody A2-11E (antibody, V domains shown)
VH: EVQLVETGGGLVQPGRSLKLSCVASGFTFSNYYMYWIRQAPGKGLEWISSINTDGGSTYYPDSVKGRFAISRDNAENTVYLQMNSLRSEDTATYYCAKSTPNIPLAYWGQGTLVTVSS
VL: DIQMTQSPSLLSASVGDRVTLSCKASQNIYKYLNWFQQKLGEAPKLLIYYSNSLQTGIPSRFSGSGSGTDFTLTISSLQPEDVAIYFCFQYSSGPTFGPGTKLELKR
notes: Rat monoclonal IgG from a hybridoma; also called 11E2
binds: [1] | [2] | [3] | [4]

B2: rat anti-ALK2 monoclonal antibody A2-15A (antibody, V domains shown)
VH: EVQLVESGGGLVQPGRSLKLSCAASGFTFSHYYMAWVRQAPTKGLEWVASITNSGGSINYRDSVKGRFTISRDNAKSTLYLQMDSLRSEDTATYYCTREGGENYGGYPPFAYWGQGTLVTVSS
VL: DIVLTQSPALAVSLGQRATISCRANQGVSLSRYNLMHWYQQKPGQKPKLLIYRSSNLASGIPARFSGSGSGTDFTLTINPVQADDIATYYCQQSRESPFTFGAGTKLELKR
notes: Rat monoclonal IgG from a hybridoma; also called 15A6
binds: [1] | [2] | [3] | [4]
